Tests used:
2PT-NBD1 [1] = molecular target: T1, 2PT-NBD1 (Homo sapiens, UniProt P13569, A534P/I539T/S492P/V470M); assay: Thermal shift assay (DSF) of 2PT-NBD1; format: binding; settings: versus isolated 2PT-NBD1
T1 construct: 2PT-NBD1 mutants (residues 387-646 containing the mutations S492P, A534P, I539T); His6-SUMO (N, cleaved yes); made in house; host or cells: Escherichia coli BL21(DE3) pLysS
Description: (§1) Solutions of either 2PT-NBD1 or F508del-2PT-NBD1 (10 μM final concentration), nanobodies (30 μM final concentration) and 2.5× or 5× concentrated SYPRO Orange Protein Stain (Molecular Probes) diluted in 20 mM HEPES pH 7.5, 150 mM NaCl, 3 mM MgCl2, 2 mM ATP and 10% (w/v) glycerol, 10% (w/v) ethylene glycol, were added to the wells of a 96-well PCR plates type BR white (VWR) in a final volume of 25 μl. Plates were sealed with EasySeal sheets (Molecular dimensions) and spun 2 min at 900× g. SYPRO orange fluorescence was monitored in CFX96 Touch Real-Time PCR Detection System (Bio-Rad) using FRET scan mode from 10 to 80° C. in increments of either 1° C. or 0.2° C.

2PT-NBD1 [2] = molecular target: T1, 2PT-NBD1; assay: Isothermal titration calorimetry (ITC) of nanobodies into 2PT-NBD1; format: binding; settings: 20° C., 2PT-NBD1, mean±SD (n=3)
Description: Interactions between nanobodies and 2PT-NBD1 was carried out on NanoITC system (TA Instruments) in 0.165 ml cells at 20° C., 300 rpm syringe stirring. Proteins were extensively dialyzed in 20 mM Hepes buffer pH 7.5, 150 mM NaCl, 10% (w/v) glycerol, 10% (w/v) ethylene glycol, 2 mM ATP and 3 mM MgCl2 for 16 h at 4° C. Heat of dilution from control experiments of each nanobody titrated into buffer was subtracted from the titration into 2PT-NBD1. Data were integrated analyzed with Origin 7.0 software (Origin Lab Corp.).
(§2) Affinity constants (KD) and thermodynamic parameters from ITC experiments were determined using one-site binding model with MicroCal Origin 7.0 software (Origin Lab Corp.). Dose response ELISA curves of each Nb binding to either isolated NBD1 or purified FL-CFTR were fitted using the sigmoidal dose-response equation from GraphPad Prism 3. DSC data were analyzed with the MicroCal Origin 7.0 software (Origin Lab Corp.), from which the unfolding temperature (Tm) was obtained.

F508del-2PT-NBD1 [3] = molecular target: T2, F508del-2PT-NBD1 (Homo sapiens, UniProt P13569, A534P/DEL508-508/I539T/S492P/V470M); assay: NBD1 ELISA dose-response, nanobody binding to immobilized F508del-2PT-NBD1; settings: F508del-2PT-NBD1 versus 2PT-NBD1
T2 construct: His6-SUMO (N, cleaved yes); made in house; host or cells: Escherichia coli BL21(DE3) pLysS
Description: For dose-response assays, Nunc MaxiSorp 96-well plates (ThermoScientific), were coated with 5 μg/ml NeutrAvidin Biotin-Binding protein (ThermoScientific) overnight at 4° C. and blocked 2 h at room temperature (RT) with 2% milk in phosphate-buffered saline (PBS). Each new reagent addition was preceded by three washes with 200 μl of NBD1 buffer (20 mM HEPES pH 7.5, 150 mM NaCl, and 10% (w/v) glycerol, 10% (w/v) ethylene glycol, 2 mM ATP, 3 mM MgCl2). Then, biotinylated purified NBD1 proteins at 5 μg/ml were immobilized 30 min at RT followed by 1 h RT incubation with 100 μl various concentrations (0-20 μg/ml) of purified nanobodies. Signal detection was followed using His-tag specific antibody (Invitrogen, catalogue number: MA1-135, 1:3000 dilution) to detect the nanobodies and secondary antibody anti-mouse coupled to horse radish peroxidase (HRP) (Millipore, catalogue number: AP308P, 1:5000 dilution). 50 μl of 1-Step UltraTMB-ELISA (ThermoScientific) was used as a substrate for the peroxidase and intensity of the reaction was proportional to absorbance measured at 450 nm with SynergyMx (BioTek) after addition of 50 μl H2SO4 at 1M.
as §2

parental BHK-21 cells = assay: Flow cytometry on parental BHK-21 cells; format: cell-based, hamster; settings: compared to negative control nanobody
Description: (§3) Parental BHK-21 cells (ATCC; CCL-10) and cells stably overexpressing human wt-CFTR^[43,44,47] or 2PT-F508del-CFTR, as described above, were permeabilized with 0.01% n-Dodecyl-β-D-Maltopyranoside β-DDM—Inalco) at least for 2 h on ice. In the meantime, cells were incubated with 50 μg/ml nanobodies and DRAQ7 (0.3 μM—Biostatus) to monitor the permeabilization state. Nanobody binding was detected by using His-tag specific antibody (Invitrogen, catalogue number MA1-135, 1 μg/ml) or Myc-tag specific antibody (Invitrogen, catalogue number 13-2500, 2 μg/ml) and then anti-mouse-Alexa Fluor 488 (Invitrogen, catalogue number A11001, 1.3 μg/ml) at least for 30 min on ice. Cells were washed one time between each step by centrifugation (200×g for 5 min at 4° C.). All incubations (100 μl) and washes (1.5 ml) were performed in PBS with 6% fetal bovine serum (FBS) and 0.01%13-DDM on ice. Cells fluorescence was measured with Gallios Flow Cytometer (Beckman Coulter). Data were analyzed with Kaluza software.

[4] = molecular target: T3, stab-CFTR: 2PT/ΔRI/R1048A_1172X (Homo sapiens, UniProt P13569, A534P/DEL405-436/I539T/R1048A/S492P); assay: NanoDSF thermostability of stab-CFTR; format: binding; settings: versus stab-CFTR alone
T3 construct: made in house; host or cells: BHK-21 cells (ATCC CCL-10), pNUT vector
Description: Purified stabilized human CFTR (stab-CFTR: 2PT/ΔRI/R1048A_1172X) was concentrated to 0.5 mg/ml and mixed with 0.1 mg/ml nanobody (^˜[…]) and capillaries were loaded with a volume of 10 The capillaries were placed into trays of Prometheus NT.48 (Nanotemper) and subjected to the fluorescence analysis. The emission of fluorescent radiation with the wavelengths of 330 nm and 350 nm was measured with the temperature changes from 25 to 85° C., with the rate of 1° C. min-1. The first derivative of 350 nm fluorescence was used to determine the melting temperature of the proteins.

wt-CFTR [5] = molecular target: T4, wt-CFTR (Homo sapiens, UniProt P13569); assay: CFTR pull-down from solubilized BHK-21 cells with immunoblot; format: binding; parameters: expressed in transfected cells; settings: immunoblot with mAb 596
Description: Human wt-CFTR was extracted from BHK-21 cells pellet by solubilization with 1% DMNG in PBS with proteases inhibitors for 1 h at 4° C. The cells debris were removed by centrifugation (16,000×g for 30 min at 4° C.). Supernatant was diluted 10 times in PBS with proteases inhibitors plus 10 mM imidazole and incubated at least for 30 min on HisPur Ni-NTA Resin (Thermo Scientific) pre-loaded with nanobodies. Resin was washed with 40 column volumes of PBS with 300 mM NaCl. Nanobodies were eluted with 200 mM imidazole in PBS. Presence of CFTR in each sample was detected by SDS-PAGE and immuno-blotting.
Cell extracts were separated by SDS-PAGE on 7.5% polyacrylamide gel and transferred to nitrocellulose membrane (Bio-Rad) for immunodetection. After blocking for 1 h with 5% bovine serum albumin (BSA) in Tris-buffered saline added 0.05% Tween-20 (TBST), CFTR was detected using monoclonal antibody mAb 596, IgG2b (CFTR Antibody Distribution Program, dilution 1:46) for 1 h in blocking buffer. Blot was washed 3 times 5 min and incubated with anti-mouse-HRP antibody (Millipore, catalogue number: AP308P, 0.2 μg/ml) for 1 h in TBST. Membrane was washed 3 times for 5 min. CFTR was visualized by chemiluminescence using Luminata Forte Western HRP Substrate (Millipore) and detected with ImageQuant 400 (GE Healthcare).

F508del-2PT-NBD1 [6] = molecular target: T2, F508del-2PT-NBD1; assay: Thermal shift assay (DSF) of F508del-2PT-NBD1; format: binding
Description: as §1

wt-CFTR [7] = molecular target: T4, wt-CFTR; assay: Flow cytometry on permeabilized BHK-21 cells overexpressing wt-CFTR; format: cell-based; parameters: expressed in transfected cells; settings: compared to negative control nanobody
Description: as §3

T2 sequence (P13569 with tags, fused parts or gaps V470M/S492P/DEL508-508/A534P/I539T limits assumed): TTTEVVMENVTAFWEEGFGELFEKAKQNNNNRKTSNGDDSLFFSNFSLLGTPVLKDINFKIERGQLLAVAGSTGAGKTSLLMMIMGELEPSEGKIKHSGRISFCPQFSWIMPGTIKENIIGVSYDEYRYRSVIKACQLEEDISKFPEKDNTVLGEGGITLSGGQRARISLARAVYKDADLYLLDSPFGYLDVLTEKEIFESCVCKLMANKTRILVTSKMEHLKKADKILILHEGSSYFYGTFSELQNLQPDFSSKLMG
T1 sequence (P13569 388-646 V470M/S492P/A534P/I539T): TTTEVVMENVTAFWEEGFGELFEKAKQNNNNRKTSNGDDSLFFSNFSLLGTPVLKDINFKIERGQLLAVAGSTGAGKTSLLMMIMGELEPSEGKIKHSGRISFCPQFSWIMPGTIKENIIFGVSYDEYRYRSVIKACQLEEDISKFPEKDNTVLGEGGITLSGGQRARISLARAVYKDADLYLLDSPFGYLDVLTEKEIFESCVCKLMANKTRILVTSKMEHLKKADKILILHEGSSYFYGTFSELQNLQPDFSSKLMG
T4 sequence (P13569 whole entry): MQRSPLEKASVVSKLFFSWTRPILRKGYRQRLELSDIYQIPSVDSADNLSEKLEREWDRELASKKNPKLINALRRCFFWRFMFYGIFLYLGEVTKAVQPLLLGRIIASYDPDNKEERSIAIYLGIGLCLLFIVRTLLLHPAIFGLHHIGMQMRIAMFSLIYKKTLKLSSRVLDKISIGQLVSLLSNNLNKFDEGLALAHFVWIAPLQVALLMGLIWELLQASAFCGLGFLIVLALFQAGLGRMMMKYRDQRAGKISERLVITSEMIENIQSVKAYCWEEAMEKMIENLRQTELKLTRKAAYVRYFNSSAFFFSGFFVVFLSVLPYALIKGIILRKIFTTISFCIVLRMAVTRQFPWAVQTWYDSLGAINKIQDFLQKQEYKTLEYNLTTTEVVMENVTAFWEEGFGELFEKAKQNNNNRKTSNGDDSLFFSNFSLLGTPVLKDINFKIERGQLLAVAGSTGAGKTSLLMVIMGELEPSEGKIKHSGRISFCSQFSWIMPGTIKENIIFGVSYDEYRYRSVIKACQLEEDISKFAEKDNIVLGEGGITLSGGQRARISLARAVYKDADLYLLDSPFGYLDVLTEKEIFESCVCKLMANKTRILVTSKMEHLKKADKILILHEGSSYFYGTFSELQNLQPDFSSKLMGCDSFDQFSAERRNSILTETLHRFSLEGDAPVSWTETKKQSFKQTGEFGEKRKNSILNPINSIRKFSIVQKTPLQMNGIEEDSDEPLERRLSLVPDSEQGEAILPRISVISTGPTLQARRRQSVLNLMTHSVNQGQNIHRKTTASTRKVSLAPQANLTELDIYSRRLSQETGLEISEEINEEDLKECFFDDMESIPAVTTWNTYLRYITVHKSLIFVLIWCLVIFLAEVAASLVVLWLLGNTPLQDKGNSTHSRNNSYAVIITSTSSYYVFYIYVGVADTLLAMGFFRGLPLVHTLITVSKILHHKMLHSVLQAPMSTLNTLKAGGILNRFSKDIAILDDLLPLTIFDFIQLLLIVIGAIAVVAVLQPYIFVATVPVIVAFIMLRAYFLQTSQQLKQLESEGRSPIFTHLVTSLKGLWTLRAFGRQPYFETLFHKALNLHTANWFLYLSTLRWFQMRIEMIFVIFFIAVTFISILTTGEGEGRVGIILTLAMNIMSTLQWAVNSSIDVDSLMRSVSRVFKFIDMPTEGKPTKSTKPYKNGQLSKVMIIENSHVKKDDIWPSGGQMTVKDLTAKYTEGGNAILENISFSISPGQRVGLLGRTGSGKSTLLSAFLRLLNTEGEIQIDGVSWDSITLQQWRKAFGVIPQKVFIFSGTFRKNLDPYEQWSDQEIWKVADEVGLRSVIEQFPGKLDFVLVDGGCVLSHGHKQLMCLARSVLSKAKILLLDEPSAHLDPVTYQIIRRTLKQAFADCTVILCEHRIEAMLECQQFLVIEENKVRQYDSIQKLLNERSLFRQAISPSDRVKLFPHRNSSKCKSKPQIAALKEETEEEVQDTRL
T3 sequence (P13569 with tags, fused parts or gaps DEL405-436/S492P/A534P/I539T/R1048A limits assumed): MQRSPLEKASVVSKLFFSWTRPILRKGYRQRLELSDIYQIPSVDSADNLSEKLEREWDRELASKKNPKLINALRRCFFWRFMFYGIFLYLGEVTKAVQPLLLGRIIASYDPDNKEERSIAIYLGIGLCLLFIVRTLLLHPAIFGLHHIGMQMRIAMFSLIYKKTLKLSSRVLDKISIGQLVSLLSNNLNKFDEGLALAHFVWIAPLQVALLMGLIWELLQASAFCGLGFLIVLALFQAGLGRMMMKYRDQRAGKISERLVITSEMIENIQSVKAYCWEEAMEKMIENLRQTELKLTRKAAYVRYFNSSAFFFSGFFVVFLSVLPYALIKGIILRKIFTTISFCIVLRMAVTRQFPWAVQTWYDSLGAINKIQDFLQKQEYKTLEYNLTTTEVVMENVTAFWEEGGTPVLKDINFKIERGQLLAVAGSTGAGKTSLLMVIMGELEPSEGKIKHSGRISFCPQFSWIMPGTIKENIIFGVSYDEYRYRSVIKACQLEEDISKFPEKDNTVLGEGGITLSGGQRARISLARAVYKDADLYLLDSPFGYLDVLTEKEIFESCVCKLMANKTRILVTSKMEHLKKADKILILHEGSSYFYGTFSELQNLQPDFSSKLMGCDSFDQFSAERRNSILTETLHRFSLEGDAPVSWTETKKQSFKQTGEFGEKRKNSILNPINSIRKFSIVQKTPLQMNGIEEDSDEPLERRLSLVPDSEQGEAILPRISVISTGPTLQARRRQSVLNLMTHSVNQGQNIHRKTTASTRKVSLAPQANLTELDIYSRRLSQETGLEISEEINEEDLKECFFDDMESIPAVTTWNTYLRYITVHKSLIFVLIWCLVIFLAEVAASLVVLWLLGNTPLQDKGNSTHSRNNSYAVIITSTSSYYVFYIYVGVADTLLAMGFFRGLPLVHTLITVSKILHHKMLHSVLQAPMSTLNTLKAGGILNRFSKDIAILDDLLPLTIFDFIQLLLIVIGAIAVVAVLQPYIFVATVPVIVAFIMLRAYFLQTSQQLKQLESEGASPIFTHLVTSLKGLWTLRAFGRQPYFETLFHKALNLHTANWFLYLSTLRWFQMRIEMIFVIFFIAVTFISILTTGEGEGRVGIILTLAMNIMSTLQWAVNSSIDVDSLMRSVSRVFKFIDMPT

Kd (2PT-NBD1 [2]): 37.9 ± 7 nM | effect of F508del mutation on binding (F508del-2PT-NBD1 [3]): drastically affected | pull-down of cellular CFTR, electrophoresis pattern (mature band C) (wt-CFTR [5]): also observed | stabilization of F508del-2PT-NBD1 (F508del-2PT-NBD1 [6]): did not stabilize | labelling of BHK-21 cells overexpressing wt-CFTR (wt-CFTR [7]): increased labelling
B1: T4: nanobody, SEQ ID NO:6, binds epitope 2 including F508, stabilizes wild type CFTR (protein)
VHH: QVQLQESGGGLVQAGGSLRLSCAASGSTFAIIAMGWYRQAPGKQRELVAVISTGDTRYADSVKGRFTISRDNAKNTVYLQMDSLRPEDTAVYYCNAAVQVRDYRNYWGQGTQVTVSS
modifications: T4 Nanobody amino acid sequence
increase of Tm of 2PT-NBD1 (2PT-NBD1 [1]): 12.5 °C | labelling of parental BHK-21 cells (parental BHK-21 cells): no difference in labelling | thermostabilization of stab-CFTR (Tm increase) [4]: 8 °C

— patent publication US20220289837A1, “Cystic Fibrosis Transmembrane Conductance Regulator Stabilizing Agents” (VIB VZW, priority 2019, published 2022)
